Measured values from PMC6879612 (2019).

Target: p53_(125–134)/HLA-A24 pMHC, soluble recombinant (human | , UniProt P61769 21-119; P04637 125-134, biotin where the biotinylated pMHC was used (site not stated))
Test: SPR

B1: P1C1gl (germline sequence converted P1C1), human IgG1 (antibody, V domains shown)
VH: QVQLQESGPGLVKPSQTLSLTCTVSGGSISSGGYYWSWIRQHPGKGLEWIGYIYYSGSTYYNPSLKSRVTISVDTSKNQFSLKLSSVTAADTAVYYCARENFGAFDHWGQGTLVTVSS
VL: QSVLTQPPSVSGAPGQRVTISCTGSSSNIGADYETHWYQQLPGTAPKLLIYGNTNRPSGVPDRFSGSKSGTSASLAITGLQAEDEADYYCQSYDSNLSAWVFGGGTKLTIL
B1 gave a koff of 0.139 s⁻¹.
